Measured values published in the nanobody polyreactivity screen of Harvey et al. (2022).

Assay: yeast display, Sf9 membrane polyspecificity reagent, FACS + sequencing; frameworks hold sequencing errors
Method in brief: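 Using colony PCR, genes from sorted yeast display clones were amplified, then sequenced on MiSeq at 2 × 250 and filtered by CDR length. The clones had been stained with 10% biotinylated, detergent-solubilized Sf9 membrane reagent for 1 hour at 4 °C and sorted by FACS into low and high (top ~1%) gates on anti-HA and streptavidin fluorescence. Polyreactivity labels come from the gate of origin.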

Row | Sequence | polyreactivity (PSR sort gate)
1 | QVQLVESGGGLVQAGGSLRLSCAASGSIFKYYAMGWYRQAPGKERELDAAISYSGGRTYYADSVKGRFTISRDNAKNTVYLQMNSLKPEDTAVYYCATDYYYRSAKFLGDYWGQGTQVTVSS | high polyreactivity
2 | QVQLVESGGGLVQAGGSLRLSCAASGSIFPFYAMGWSRQAPGKERELVAAITWISGRTYYADSVKGRFTISRDNAKTTVYLQRNRLKPEDTAVYYCAVDYYSWLRRDDYWGQGTQVTVSS | low polyreactivity
3 | QVQLVESGGALVQAGGSLRLICAASGSIFGHNAMGWYRQAPGKERELVAAISRGTRTNYADSVKGRFTISRDNAKNTFYVQMNSLKQVDSAVYYCNLQPGRGPYVGRKYGYWGQGTQVTVSS | high polyreactivity
4 | QVQLVESGGGLVQAGGSLRLSCAASGRIFTYNVMGWYRQAPGKERELVAAIYSSGVRTSYADSVKGRFTISRDNAKNTVYLHMNSLKPEDTALYYCAADKRYHYGLLHDPSYYYDYWGQGTQVTVSS | low polyreactivity
5 | QVQLVESGGGLVQAGGSLRLSCAASGRTFNRNAMGWYRPAPGKERELVAAISWGGSRTYYADSVKGRFTISRDNAKNTVYLQMNSLKPEDTAVYYCAVDGFRGRSHGANDYWGQGTQVTVSS | high polyreactivity
6 | QVQLVVSGGGLVQAGGSLLLSCAASGFTFYSYAMGWYRQAPGKERELVAGISWSGTRTYYADSVKGRFTISRDNAKNTVYLQMISLKPEDTAVYYCAARGYRYGYGYWGQGTQVTVSS | high polyreactivity
7 | QVHLVESGGGLVQAGRSLRISCAASGRTFYGYAMGWYRQAPGKERELVAAITNGGRTYYADSVKGRFTISRDNAKNTVYLQMNSLKPEDTAVYYCAAGTGRGRSTLGSYYWGQCTQVTVSS | high polyreactivity
8 | QVQLVESGGVLVQAVGSLRLSCAASGSIFHDYALGWYRQAPGKEREMVAAISSGSGSTSYADSVKGRFTISRDNAKNTVYLQMNSLKPEATAVYYCNADADAVPFAFRGSYDYWGQGTQVTVSS | low polyreactivity
9 | QVQLVESGGGLVQAGGSLRLSCAASGLIFRSYAMGWYRQAPGKERELVARISIRGGSTYYADSVKGRFTISRDNAKYTVYLQMNSLKPEDTAVYYCGAVGYFGGFRYDYWGQGTQVTVSS | high polyreactivity
10 | QVQLVESGGGLVQAGGSLRLSCAASGRTFGYNAMGWYRQAPGKERELVATITSSDSTYYADSVKGRFTISRDNAKNTVYLQMNSLKPEDTAVYYCAADDVGWGYYVYSYPYDYWGQGTQVTVSS | low polyreactivity
11 | QDQHVESGGGLVQAGGSLRLSCAASGSIFWYYAMGWYRQEPGKERELVAAISRSGGSTYYADSVKGRFTISRDNAKNTVYLEMNSLKPEDTAVYYCAAGYSSLRRFGVYYWGQGTQVTVSS | high polyreactivity
12 | QVQLVESGGGLVQAGGSLRLSCAAYGRTFRLNAMGWYRQAPGKERELVAGIRVRAGTTYYADSVKGRFTISRDNAKNTVYLQMNSLKPEDTAVYYCAAESYSRSRKYDYWGQGTQVTVSS | high polyreactivity
13 | QVQLVESGGGLVQAGGSLRLSCAATGSIFVGYVMGWYRQAAGKERELVAAISRSGGRTYYADSVKGRFTISRDNAKNTVYLQMNSLKPEDTAVYYCAVRHRFYTAGYDYWGQGTQVTVSS | low polyreactivity
14 | QVQLEESWGGLVQAGGSLRLSCAASGRTFDTYAMGWNRQAPGKERELVAAITSGGSTYYADSVKGRFTISRDNAKNTVYLQMNSLKPEDTAVYYCAVSGQLYAYRYGYWGQGTQVTVSS | low polyreactivity
15 | QDQRVDSGGGLVQAGGSLRLSCTAYGFIFGWYAMGWYRQSPGKASQLVAPISQSVGSTYYADSVKGRFTISRDNAKNTVYLQMNSLKPEDSAVYYCNAVGRGSRSRLSSRAGGGDYWGQGTQVTVSS | high polyreactivity
16 | QVQLVESGGGLVQAGGSLRLTCAASGRIFSFNAMVSYRKATGKERELVATIRTDGTTNYADSVKGRFTISRDNAKNTVYLQMNSMKPEDTAVYYCATDSGWSTYDFWGQGTQVTVSS | high polyreactivity
17 | QVQLVESGGGLVQAGGSLRLSCAASGSTFTAYAMGWYRQAPGKERELVAAISKRSGGTYYADSVKGRFTISRDNAKNTVYLQMNSLKPEVTAVYYCGQGTQVTVSS | low polyreactivity
18 | QVQLVESGGGLVQAGGSLRLSCASSGITFGVYAMGWYRQAPGKERELVAAISRRGAYTYYADSVKGRFTISRDNGKNTVYLQMNSLKPEDTAVYYCAAYLARRQYDYWGQGTQVTVSS | high polyreactivity
19 | QVQLVESGGGLVQAGGSLRLSCAASGSTFVYYAMGWYRQAPGKERELVAAISSGGNTKYADSVKGRFTISRDNAKNTVYLQMNSLKPEDTAVYYCARESQSYYDHDYWGQGTQVTVSS | low polyreactivity
20 | QVQLVESGGGLVQAGGSLRLSCAASGRIFARNAMGWYIQAPGKEREFVAAITHSGGNTYYADSVKGRFTISRDNAKKTVYLQMNSLKPEDTAVYYCAKEYRSTKYDYWGQGTQVTVSS | low polyreactivity
21 | QVQLVESGGGLVQAGGSLRLSCAASGRIFPYYAMGWYRQAPGKERELVATISSGGRTNYADTVMGRFTISRDNAKNTVYLQMNSLKPEDTAVYYCAADYRKSRVFYGLYYWGQGPQVTVSS | high polyreactivity
22 | QVQLVESGGGLVQAGGSLRLSCASSGNIFRKYAMAWYRQAPGKERELVAITSGTNTYYADSVKGRFTISRDNAKNTVYVQMNSLKPEDSAVYYCNKSGFRSSHKYDYWGQGTQVTVSS | low polyreactivity

Row | Sequence | polyreactivity (PSR sort gate)
23 | QVQLVESGGGLVQAGGSLRLSCAASGRTFVFYAMGWYRQAPGKERELVAAISSSGGSTYYADSVKGRFTISRDNAKNTVYLQMNSLKPEDTAVYYCNADFYSVGSQYGYWGQGTQVTVSS | high polyreactivity
24 | QVQLVVSGGGLVQAGGSLRLSCAASGRTFRSNAMGWYRQAPGKERELVAAISRTGRTNYADSVKGRFTISRDTAKNTVYLQMNSLKPEDTAVYYCAARGYSVPRQERYDYWGQGTQVTVSS | high polyreactivity
25 | QVQLVESGGGLVQAGGSLRLSCAASGSTFRYYAMGWYRQAPGKERELVAAISTSGGRTYYADSVKGRFTISRDNAKNTVYLQMNSLKPEDTAVYYCNARESRGYSDQTWKYYYWGQGTQVTVSS | high polyreactivity
26 | QVQLVDSGGGLVQAGGSLSLSCAASGYTMGYYTMGWYIEAPGKERELVATISRRGGSTSYADSVKGRFTISRDNAKNTVYLQMNSLKPEDTAVYYCNAQTSGRVGSQYYSYDGSWGQCTQVTVSS | high polyreactivity
27 | QVQLVESGGGLVQAGGSLRLSCAASGFILTLYAMGWYRQAPGKERELVASISRRGGSTYYADSVKGRFTISRDNAKNTVYLQMNSLKPEDTAVYYCNAQGYRRGYDYWGQGTQVTVSS | high polyreactivity
28 | QVQLVESGGGLVQAGGSLRLSCAASGSIFYAYAMGWYRQAPGKEREFVAVISYSGGSTYYADSVKGRFTISRDNAKNTVYLQMYSLKPEDTAVYYCAARYRRPYSYYYWGQGTQVTVSS | high polyreactivity
29 | QVQLVESGGGLVQAGGSLRLSCAPSGRMFVFYTMGWYRPAPGKESELVAYINSGGSTYYADSVKGRFTISRDNAKNSVYLQMNSLKPEDTAVYYCAAGPCRGPDSRWRYKYDYWGQGTQVTVSS | high polyreactivity
30 | QVQLVESGGGLVQAGGSLRLSCAASGSIFPPYVMGWYRPAPGKERELVAAINYIGDSTYADSVKGRFTISRDNAKNTVYLQINSLKPEDTAVYYCAAELWSGGVYSGFEEYWGQGTQVTVSS | high polyreactivity
31 | QVQLVESGGGLVQAGGSLRLSCAASGRTFYWYTMGWYRQAPGKERELVAGIRSGGYTNYADSVKGRFTISRDNAKNTVYLQMNSLKPEDTAVYYCAAGGYSSAYGVSYGSYYYWGQGTQVTVSS | low polyreactivity
32 | QVQLVESGGGLVQAGGNLRLSCAASGSIFYWNAMGWYRQAPGKERELVAAINYSGDSTYYADSVKVRFTISRDNAKNTVYLQMNSLKPEDTAVYYCNFDYWGQGSQVTVSS | low polyreactivity
33 | QVQLVKSGGGLVQAGGSLRLSCAASGRIFVGYVMGWYRQAPGKERELVAAIDSGGRTNYADSVKGRFTISRDNAKNTVYLQMNSLKPEDTAVYYCNREAAHGSLRWTEMEYWGQGTQVTVSS | low polyreactivity
34 | QVQLVESGGGLVQAGGSLRLSCAPSGSTFYVNTMGWYRQAPGKERELVAAITATGASTYYADSVKGRFTISRDNAKNTVYVQMNSLKPEDTAVYYCNVRLRIRSGYWGQGTQVTVSS | high polyreactivity
35 | QVQLVESGGGLVQAGGSLRLSCAASGSIFYDYTMGWSRQAPGKERELVAAINSGGSTNYADSVKGRFTISRDNAKNTVYLQMNSLKPEDTAVYYCAAEPQFAFLDSRLWGSDYWGQGTQVTVSS | low polyreactivity
36 | QVQLVESGGGLVQAGGSLRLSCAASGSTFTGNAMAWYRQAPGKERELVAAISRSGGSTFYADYVKGRFTISRDNAKNTVYLQMNSLKPEDTAVYYCATRYVVDMDYWGQGTQVTVSS | high polyreactivity
37 | QVQLVESGGGLVQAGGSLRLSCAASGITFVFYAMGWYRQAPGKERELVAAISWSGGITYYADSVKGRFTISRDNAKNTVYLQMNSLKPEDTAFYYCAATKRQTKYYGGTTDSIMYYWGQGTQVTVSS | low polyreactivity
38 | QVQLVESGGGLVQAGGSLRLSCAASGFTFKYYTMGWYRQAPGKERELVAAISKSGDITYYADSVKGRFTISRDNAKNTVYLQMNSLKPEDTAVYYCAAVGRVSYNRFDYWGQGTQVTVSS | high polyreactivity
39 | QVQLVESGGGLVQAGGSLRLSCAASGRIHTYAMGWYRQAPGKERELVAAISFSGGSTYYADSVKGRFTISRDNAKNTVYLQMNSLKPEDTAVYYCAAGGGPNYFVDYGIRYDNWGQGTQVTVSS | low polyreactivity
40 | QVQLVESGGGLVQAGGSLRLSCAASGSIFNGYAMGWYRQAPGKERELVAAISWNGGRTYYADSVKGRFTISRDNAKNTVYLQMNSLKPEDTAVYYCNKVSGYDVDYWGQGTQVTVSS | high polyreactivity
41 | QVQLVESGGGLVQAGGSLRLSCAASGSIFRYNAMGWYRQAPGKERELVAVIRGTSGDTYYADSVKGRFTISRDNAKNTVYLQMNSLKPEDTAVYYCAAQLAGASYSHSNYSDWFDYWGQGTQVTVSS | low polyreactivity
42 | QVQLVESGGGLVQAGGSLRLSCAASGSIFYWYAMGWYRQAPGKERELVAAISSSNDSTDYADSVKGRFTISRDNAKNTVYLQMNSLKPEDTAVYYCAARYGTIQYDYWGQGTQVTVSS | low polyreactivity
43 | QVQLVESGGGLVQAGGSLRLSCAASGSTFNYNPMGWYRQAPGKERELVAAISSSGGSTYYADSVKGRFTISRDNAKNTVYLQMNSLKPEDTAVYYCATGGSSRVRTEGDYWGQGTQVTVSS | low polyreactivity
